Reference: paper PMC12333375

Key:
[1] = target: AAV8 capsid (adeno-associated virus serotype 8 capsid) (adeno-associated virus serotype 8 (AAV8)) (UniProt Q8JQF8); test: native MS; orbitrap-based charge detection-mass spectrometry (CD-MS) of nSEC fraction F2 (capsid dimers), infused by CE with sheath liquid interface at about 80 nL/min, 200 mM ammonium acetate, nano ESI, triplicates
[2] = target: AAV8 capsid (adeno-associated virus serotype 8 capsid) (adeno-associated virus serotype 8 (AAV8)) (UniProt Q8JQF8); test: SEC-MALS; offline native SEC (AdvanceBio SEC 300 x 7.8 mm, 2.7 um, 500 A) with 20-angle MALS and DAD at 260 and 280 nm; 1:1 (v/v) mixture of empty and full AAV8 capsids; 200 mM ammonium acetate, 1.0 mL/min, 6 replicates; capsid dimer against capsid monomer by peak area

For “AAV8 capsid (adeno-associated virus serotype 8 capsid) (from UniProt Q8JQF8 1-738) (complex)”, the % empty capsid dimers (CD-MS) [1] was 1%, the % filled capsid dimers (CD-MS) [1] was 3% and the stoichiometry N [1] was 2. The % AAV8 capsid dimer (peak area, absorbance at 260 nm) [2] was 0.9%, the % AAV8 capsid dimer (peak area, absorbance at 280 nm) [2] was 1% and the stoichiometry N [2] was 2.
